The target in the assay is T1, human NKG2D (human, UniProt P26718 1-216).
T1 construct: whole, on cells; also called hNKG2D; expressed on CHO-K1/hNKG2D-11 cells
T1 sequence (looked up): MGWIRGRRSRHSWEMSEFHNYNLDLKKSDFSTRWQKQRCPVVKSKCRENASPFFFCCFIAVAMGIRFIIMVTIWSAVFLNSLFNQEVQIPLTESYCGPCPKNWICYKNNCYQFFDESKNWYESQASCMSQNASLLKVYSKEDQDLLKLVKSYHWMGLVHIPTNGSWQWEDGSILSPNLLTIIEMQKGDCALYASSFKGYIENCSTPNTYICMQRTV
The assay is described as follows: flow cytometry on CHO-K1/hNKG2D-11 cells, detected with anti-human IgG (Fc)-FITC. How it is done: The human NKG2D-expressing CHO-K1 cell strain CHO-K1/hNKG2D-11 obtained in Example 7 was washed twice with PBS/1% FBS and suspended in 50 μl PBS/1% FBS containing 10 μl concentrate of the culture supernatant of the CSP2-Fc-expressing COS7 cells obtained in Example 6. The suspension was reacted at 0° C. for 60 minutes for binding them, then washed twice with 200 μl PBS/1% FBS, and suspended in 50 μl PBS/1% FBS containing 1 μl anti-human IgG (Fc)-FITC conjugate (Caltag). The suspension was reacted at 0° C. for 60 minutes for labeling, then washed twice with 200 μl PBS/1% FBS, and suspended again in 600 μl PBS/1% FBS. When the suspension was analyzed with a flow cytometer FACS Vantage (Becton Dickinson), cells with high intensity of FITC fluorescence were recognized, and the evident binding of CSP2-Fc protein to human NKG2D expressed on the surface of CHO-K1 cells was observed (FIG. 2A).

B1: CSP2-Fc protein (fusion protein of CSP2 protein with human IgG Fc region) (Fc fusion)
chain: HSLCFNFTIKSLSRPGQPWCEAQVFLNKNLFLQYNSDNNMVKPLGLLGKKVNATSTWGELTQTLGEVGRDLRMLLCDIKPQIKTSDPSTLQVEMFCQREAERCTGASWQFAINGEKSLLFDAMNMTWTVINHEASKIKETWKKDRGLEKYFRKLSKGDCDHWLREFLGHWEAMPEPTVSPVNASDIHWSSS
notes: Used as a 100-fold concentrate of the culture supernatant of transfected COS7 cells, not purified; The construct encodes CSP2 residues 1-221; not shown: human IgG Fc region, amplified by PCR from human spleen IgG Fc cDNA (Clontech); Subclass, limits and the residues encode
Regarding B1, the binding result is given as “binds”.

Values taken from patent publication US20050074754A1 (published 2005).
